A word on the Kd: it is the free concentration of one partner at which half of the binding sites on the other are occupied at equilibrium, for simple one-to-one binding. For orientation: koff means the first-order rate constant of dissociation. Usually kon stands for a measure of how fast the partners come together. For orientation: EC50 means the concentration that produces a half-maximal response.

T1: CynoIL36R-ECD mFc recombinant protein (cynomolgus monkey)
T1 construct: Made in ExpiCHO, purified on Protein A; also called cynomolgus IL-36R extracellular region with mouse antibody heavy chain Fc
T1 chain: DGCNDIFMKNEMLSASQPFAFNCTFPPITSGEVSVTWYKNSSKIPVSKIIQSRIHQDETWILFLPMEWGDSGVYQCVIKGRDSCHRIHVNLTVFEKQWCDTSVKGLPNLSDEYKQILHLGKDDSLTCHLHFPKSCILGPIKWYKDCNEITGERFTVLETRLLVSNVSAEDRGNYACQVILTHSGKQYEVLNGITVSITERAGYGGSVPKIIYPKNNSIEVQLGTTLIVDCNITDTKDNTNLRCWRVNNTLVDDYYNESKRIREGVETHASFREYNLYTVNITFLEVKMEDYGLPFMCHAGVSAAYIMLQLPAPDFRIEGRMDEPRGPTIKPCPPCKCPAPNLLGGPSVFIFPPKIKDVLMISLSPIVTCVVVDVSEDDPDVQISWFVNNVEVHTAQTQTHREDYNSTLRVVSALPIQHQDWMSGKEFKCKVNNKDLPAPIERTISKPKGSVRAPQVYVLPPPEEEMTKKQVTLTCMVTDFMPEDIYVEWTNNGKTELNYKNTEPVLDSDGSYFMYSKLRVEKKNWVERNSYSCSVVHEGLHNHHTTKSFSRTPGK

T2: Human IL-1Rrp2/IL-1R6 protein, His Tag (ACROBiosystems, IL2-H52H6) (human, UniProt Q9HB29 20-335)
T2 construct: Bought protein; the soluble protein is likely only the extracellular part; also called hIL-36R; human IL36R antigen; not shown: His tag
T2 sequence: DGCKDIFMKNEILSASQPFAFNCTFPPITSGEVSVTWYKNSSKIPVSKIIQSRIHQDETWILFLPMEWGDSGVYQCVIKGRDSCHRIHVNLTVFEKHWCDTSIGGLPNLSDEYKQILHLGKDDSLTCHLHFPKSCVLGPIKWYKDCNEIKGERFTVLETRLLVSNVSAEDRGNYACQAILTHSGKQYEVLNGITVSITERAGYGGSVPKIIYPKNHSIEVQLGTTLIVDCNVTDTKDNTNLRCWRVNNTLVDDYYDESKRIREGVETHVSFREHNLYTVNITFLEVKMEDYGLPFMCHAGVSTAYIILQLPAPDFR

B1: chimeric 72C1 antibody (antibody, human IgG4 S228P, kappa)
heavy: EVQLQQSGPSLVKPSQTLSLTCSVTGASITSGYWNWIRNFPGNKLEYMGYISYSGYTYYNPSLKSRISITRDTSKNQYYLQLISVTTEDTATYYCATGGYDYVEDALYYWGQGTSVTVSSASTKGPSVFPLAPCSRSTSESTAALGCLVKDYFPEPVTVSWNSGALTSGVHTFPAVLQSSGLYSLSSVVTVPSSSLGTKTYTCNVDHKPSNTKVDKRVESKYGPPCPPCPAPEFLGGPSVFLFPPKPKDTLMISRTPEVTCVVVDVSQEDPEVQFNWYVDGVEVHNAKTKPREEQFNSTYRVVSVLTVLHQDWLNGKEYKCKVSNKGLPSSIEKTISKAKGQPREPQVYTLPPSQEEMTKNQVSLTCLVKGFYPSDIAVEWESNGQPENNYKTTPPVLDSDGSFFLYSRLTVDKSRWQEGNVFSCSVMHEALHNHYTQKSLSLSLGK
light: EILLTQSPAIMSATLGEKVTMSCRASSNVRYMYWYQLKSGASPKLWIYLTSNLASGVPARFSGSGSGTSYSLTISSVEAEDAATYFCQQFTTSPYTFGGGTKLEIKRTVAAPSVFIFPPSDEQLKSGTASVVCLLNNFYPREAKVQWKVDNALQSGNSQESVTEQDSKDSTYSLSSTLTLSKADYEKHKVYACEVTHQGLSSPVTKSFNRGEC
notes: Mouse variable regions on human IgG4 / kappa; also called xi72C1
B2: BI655130 (antibody, human IgG1, kappa, L234A L235A)
heavy: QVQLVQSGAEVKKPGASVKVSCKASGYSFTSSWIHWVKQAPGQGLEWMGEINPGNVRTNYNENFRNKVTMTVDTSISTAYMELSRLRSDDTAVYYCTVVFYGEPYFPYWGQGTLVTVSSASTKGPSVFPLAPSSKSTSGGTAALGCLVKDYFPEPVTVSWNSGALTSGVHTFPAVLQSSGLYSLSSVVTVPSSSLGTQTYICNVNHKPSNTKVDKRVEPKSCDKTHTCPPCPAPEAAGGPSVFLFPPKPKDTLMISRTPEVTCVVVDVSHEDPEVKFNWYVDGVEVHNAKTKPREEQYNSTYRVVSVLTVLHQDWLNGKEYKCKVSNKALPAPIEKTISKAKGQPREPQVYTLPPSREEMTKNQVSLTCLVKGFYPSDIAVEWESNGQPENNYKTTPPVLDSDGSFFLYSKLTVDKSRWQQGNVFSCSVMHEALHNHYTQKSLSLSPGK
light: QIVLTQSPGTLSLSPGERATMTCTASSSVSSSYFHWYQQKPGQAPRLWIYRTSRLASGVPDRFSGSGSGTDFTLTISRLEPEDAATYYCHQFHRSPLTFGAGTKLEIKRTVAAPSVFIFPPSDEQLKSGTASVVCLLNNFYPREAKVQWKVDNALQSGNSQESVTEQDSKDSTYSLSSTLTLSKADYEKHKVYACEVTHQGLSSPVTKSFNRGEC
notes: also called Spesolimab
B3: hz72C1-1.1 (antibody, human IgG4 S228P, kappa)
heavy: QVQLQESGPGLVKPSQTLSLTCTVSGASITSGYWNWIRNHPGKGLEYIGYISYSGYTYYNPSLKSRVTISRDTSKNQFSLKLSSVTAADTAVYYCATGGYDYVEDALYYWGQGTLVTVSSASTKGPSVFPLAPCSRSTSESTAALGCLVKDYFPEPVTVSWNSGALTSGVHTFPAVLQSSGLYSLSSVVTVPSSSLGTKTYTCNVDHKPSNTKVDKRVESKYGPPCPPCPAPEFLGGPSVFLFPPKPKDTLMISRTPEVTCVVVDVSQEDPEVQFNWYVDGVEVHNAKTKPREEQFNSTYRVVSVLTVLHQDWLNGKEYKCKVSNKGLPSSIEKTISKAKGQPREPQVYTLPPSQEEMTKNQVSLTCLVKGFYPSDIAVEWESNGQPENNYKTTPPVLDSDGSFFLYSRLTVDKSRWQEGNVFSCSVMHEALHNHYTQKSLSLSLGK
light: DIQMTQSPSSLSASVGDRVTITCRASSNVRYMYWYQQKPGKAPKLWIYLTSNLASGVPSRFSGSGSGTSYTLTISSLQPEDFATYYCQQFTTSPYTFGQGTKLEIKRTVAAPSVFIFPPSDEQLKSGTASVVCLLNNFYPREAKVQWKVDNALQSGNSQESVTEQDSKDSTYSLSSTLTLSKADYEKHKVYACEVTHQGLSSPVTKSFNRGEC
notes: Humanized, human IgG4 / kappa; also called humanized 72C1 antibody 1.1
B4: hz72C1-1.3 (antibody, human IgG4 S228P, kappa)
heavy: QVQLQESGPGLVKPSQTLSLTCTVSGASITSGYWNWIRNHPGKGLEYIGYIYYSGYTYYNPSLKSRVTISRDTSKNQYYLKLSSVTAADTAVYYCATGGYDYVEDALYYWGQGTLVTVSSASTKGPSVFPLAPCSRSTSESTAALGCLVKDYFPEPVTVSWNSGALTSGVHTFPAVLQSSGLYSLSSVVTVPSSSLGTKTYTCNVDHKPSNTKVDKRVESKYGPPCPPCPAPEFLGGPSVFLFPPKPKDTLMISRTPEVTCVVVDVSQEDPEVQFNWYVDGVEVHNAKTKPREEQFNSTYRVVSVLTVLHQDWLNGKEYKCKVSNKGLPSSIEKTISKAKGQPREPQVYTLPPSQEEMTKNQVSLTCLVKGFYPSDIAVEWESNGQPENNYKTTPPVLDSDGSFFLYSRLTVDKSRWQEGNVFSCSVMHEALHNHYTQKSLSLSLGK
light: B3 light
notes: Humanized, human IgG4 / kappa
B5: chimeric 84C4 antibody (antibody, human IgG4 S228P, kappa)
heavy: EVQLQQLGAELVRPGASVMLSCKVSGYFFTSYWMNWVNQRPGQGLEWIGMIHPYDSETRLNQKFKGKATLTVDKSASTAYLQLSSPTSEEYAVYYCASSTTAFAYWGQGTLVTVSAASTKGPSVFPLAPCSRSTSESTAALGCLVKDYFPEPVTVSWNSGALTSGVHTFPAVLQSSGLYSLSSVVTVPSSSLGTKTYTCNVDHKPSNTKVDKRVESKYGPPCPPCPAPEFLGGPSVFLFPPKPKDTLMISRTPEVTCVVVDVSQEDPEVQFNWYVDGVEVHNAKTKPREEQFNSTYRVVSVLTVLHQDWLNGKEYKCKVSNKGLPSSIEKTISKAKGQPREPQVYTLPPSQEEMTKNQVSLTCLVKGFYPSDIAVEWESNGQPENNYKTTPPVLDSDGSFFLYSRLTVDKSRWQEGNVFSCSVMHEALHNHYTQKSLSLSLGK
light: DILMTQSPSSLSASLGERVSLTCRASQDIGNALNWLQQAPDGTIKRLIYATSSLDPGVPKRFSGSRSGSDYSLTISSLASEDFVYYYCLQYASSPYTFGGGTKLEIKRTVAAPSVFIFPPSDEQLKSGTASVVCLLNNFYPREAKVQWKVDNALQSGNSQESVTEQDSKDSTYSLSSTLTLSKADYEKHKVYACEVTHQGLSSPVTKSFNRGEC
notes: Mouse variable regions on human IgG4 / kappa; also called xi84C4

The first experiment has as its target T1, CynoIL36R-ECD mFc recombinant protein. The experiment can be described thus: BLI (ForteBio Octet), antibody on ProA sensor, 1:1 model. As to the method:
The affinity of anti-IL-36R antibodies to CynoIL36R-ECD mFc and human IL-1Rrp2/IL-IR6 protein, His Tag (ACROBiosystems, IL2-H52H6) was measured by a ForteBio molecular interaction instrument. […] And then the biosensor was used to bind CynoIL36R-ECD mFc or human IL-1Rrp2/IL-1R6 protein, His Tag which was diluted by a gradient (the initial concentration was 200 nM, 2-fold gradient dilution), the response signals were detected in real time using a Fortebio molecular interaction instrument (SARTORIUS, octet red 96e), and association and dissociation curves were obtained. After the completion of dissociation in each cycle, the biosensor was regenerated for the next capture; the procedure was repeated until the affinity of the different anti-IL-36R antibodies for IL-36R was determined. The resulting data were analyzed by Fortebio Data Analysis 11.0 software in a 1:1 (Langmuir) binding model to determine kₐ (kₒₙ) and kd (koff) values, and the dissociation constant KD was calculated by KD=kd/kₐ. The detection method essentially followed the manufacturer's recommendations, and more information could be found at www.fortebio.com.
Affinity, binding and blocking assays for humanized antibodies hz72C1-1.1, hz72C1-1.2, hz72C1-1.3, hz72C1-2.1, hz72C1-2.2 and hz72C1-2.3 as well as hz84C4-1.1, hz84C4-1.2, hz84C4-1.3, hz84C4-1.4, hz84C4-1.5, hz84C4-2.1, hz84C4-2.2, hz84C4-2.3, hz84C4-2.4 and hz84C4-2.5 were performed according to the methods of Example 4, Example 5. Example 6, Example 7 and Example 8.
For orientation: BLI is a label-free optical method that tracks binding on a fibre tip over time.
For the molecule B1, the equilibrium dissociation constant (Kd) came out at 0.352 nM, the koff worked out at 9.04e-06 s⁻¹ and the association rate constant (kon) came to 25700 M⁻¹ s⁻¹.

As for B2, the Kd was 2.46 nM, the off-rate (koff) worked out at 7.26e-05 s⁻¹ and the kon is 29500 M⁻¹ s⁻¹.

Consider B3, for which the Kd turned out to be 0.66 nM, the off-rate (koff) amounted to 1.51e-05 s⁻¹ and the kon worked out at 22800 M⁻¹ s⁻¹.

For B4, the Kd was determined as 0.445 nM, the koff was 9.42e-06 s⁻¹ and the kon is 21200 M⁻¹ s⁻¹.

For the next experiment the target is unchanged. The experiment is described as follows: ELISA, plate coated with CynoIL36R-ECD mFc, HRP-protein A/G, OD450. On the procedure: (§1) The binding activity of anti-IL-36R antibodies to IL-36R was analyzed by ELISA using human IL-1Rrp2/IL-1R6 protein, His Tag (ACROBiosystems, IL2-H52H6) and CynoIL36R-ECD mFc (for detection of chimeric and humanized antibodies), and hIL36R-ECD hFc and CynoIL36R-ECD hFc protein (for detection of hybridoma antibodies) as antigens. A 96-well plate (Costar, 9018) was coated with 2 μg/mL antigen at 100 μL/well and incubated overnight at 4° C. After the 96-well plate was washed with a washing buffer (PBS containing 0.05% v/v Tween 20), a blocking buffer (PBS containing 2% bovine serum albumin) was added for blocking at 37° C. for 2 h. After the 96-well plate was washed with the washing buffer, 100 μL of the gradient diluted anti-IL-36R antibody of the present disclosure or the reference antibody BI655130 (the initial concentration of the antibody was 66 nM, 4-fold gradient dilution) was added to each well, and the plate was incubated at room temperature for 1 h. After the 96-well plate was washed with the washing buffer, 100 μL of horseradish peroxidase-conjugated recombinant protein A/G (TheroScientific, 32490) was added to each well, and the plate was incubated at room temperature for 1 h. After the 96-well plate was washed with the washing buffer, 100 μL of a TMB solution (Thermo, 00-4201-56) was added to each well, and the plate was incubated at room temperature for 2 min. Finally, 100 μL of a stop solution (2 N H₂SO₄) was added to each well to stop the reaction. Absorbance was read at 450 nm using a microplate reader (PE, Envision), the resulting data was analyzed using GraphPad Prism, and EC₅₀ was calculated. Binding EC₅₀ of the chimeric anti-IL-36R antibodies to hIL-36R in an ELISA assay is shown in FIG. 1. and binding EC₅₀ of the chimeric anti-IL-36R antibodies to CynoIL-36R in an ELISA assay is shown in FIG. 2. The binding of BI655130 is shown as a control, and the binding of IgG4 is shown as a negative control.
Background: In an ELISA, binding on a coated surface is turned into a signal by an enzyme label.
Turning to B5, the concentration for a half-maximal effect (EC50) worked out at 21.9 nM.

For B1, the 50% effective concentration (EC50) is 3.02 nM.

Take B2: the EC50 came out at 1.89 nM.

Another experiment deals with T2, Human IL-1Rrp2/IL-1R6 protein, His Tag …. The experiment can be described thus: ELISA, plate coated with human IL-1Rrp2/IL-1R6 His Tag, HRP-protein A/G, OD450. On the procedure: as §1
The molecule B5 registered a 50% effective concentration (EC50) of 0.97 nM.

Turning to B1, the EC50 was found to be 2.62 nM.

On to B2, for which the EC50 turned out to be 0.761 nM.

Values taken from US20240270857A1 (CHIA TAI TIANQING PHARMACEUTICAL GROUP, published 2024).
